From the supplement of paper PMC10065799, “High-throughput profiling of sequence recognition by tyrosine kinases and SH2 domains using bacterial peptide display” (eLife, 2023)

Key:
[1] = biological target: FGFR1 (UniProt P11362); experiment: phosphorylation enrichment, bacterial display (enrichment ratio); higher = better substrate or ligand; peptides without Tyr show the background
[2] = tested on: c-Abl (mouse); experiment: as above
[3] = biological target: EPHB2 (UniProt P29323); experiment: as above
[4] = biological target: MERTK (UniProt Q12866); experiment: as above
[5] = biological target: Fes (UniProt P07332); experiment: as above
[6] = tested on: AncSZ; experiment: as above
[7] = biological target: Jak2 (UniProt O60674); experiment: as above
[8] = biological target: Fyn (UniProt P06241); experiment: as above
[9] = biological target: Hck (UniProt P08631); experiment: as above
[10] = tested on: Fer (mouse); experiment: as above
[11] = biological target: EPHB1 (UniProt P54762); experiment: as above
[12] = biological target: FGFR3 (UniProt P22607); experiment: as above
[13] = tested on: c-Src; experiment: as above
[14] = biological target: Grb2 SH2 (UniProt P62993); experiment: SH2 binding enrichment of the phosphorylated peptide, bacterial display (enrichment ratio); higher = better substrate or ligand; peptides without Tyr show the background
[15] = biological target: c-Src SH2; experiment: as above
[16] = biological target: SHP2-C SH2; experiment: as above
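Wherever SH2 binding enrichment of the phosphorylated peptide, bacterial display is given: peptide library displayed on the E. coli surface as eCPX fusions, selected cells deep-sequenced, score is each peptide's frequency after selection divided by its frequency in the input.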
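Wherever phosphorylation enrichment, bacterial display is given: 11-residue human phosphosite peptides and single-mutation variants displayed on the E. coli surface, counted by deep sequencing, each peptide's frequency after selection divided by its frequency in the unselected input library; frequency after pTyr selection over input frequency; kinase dosed for 20-30% of maximal phosphorylation in three min.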

FGFR1, sequence (P11362 whole entry, looked up): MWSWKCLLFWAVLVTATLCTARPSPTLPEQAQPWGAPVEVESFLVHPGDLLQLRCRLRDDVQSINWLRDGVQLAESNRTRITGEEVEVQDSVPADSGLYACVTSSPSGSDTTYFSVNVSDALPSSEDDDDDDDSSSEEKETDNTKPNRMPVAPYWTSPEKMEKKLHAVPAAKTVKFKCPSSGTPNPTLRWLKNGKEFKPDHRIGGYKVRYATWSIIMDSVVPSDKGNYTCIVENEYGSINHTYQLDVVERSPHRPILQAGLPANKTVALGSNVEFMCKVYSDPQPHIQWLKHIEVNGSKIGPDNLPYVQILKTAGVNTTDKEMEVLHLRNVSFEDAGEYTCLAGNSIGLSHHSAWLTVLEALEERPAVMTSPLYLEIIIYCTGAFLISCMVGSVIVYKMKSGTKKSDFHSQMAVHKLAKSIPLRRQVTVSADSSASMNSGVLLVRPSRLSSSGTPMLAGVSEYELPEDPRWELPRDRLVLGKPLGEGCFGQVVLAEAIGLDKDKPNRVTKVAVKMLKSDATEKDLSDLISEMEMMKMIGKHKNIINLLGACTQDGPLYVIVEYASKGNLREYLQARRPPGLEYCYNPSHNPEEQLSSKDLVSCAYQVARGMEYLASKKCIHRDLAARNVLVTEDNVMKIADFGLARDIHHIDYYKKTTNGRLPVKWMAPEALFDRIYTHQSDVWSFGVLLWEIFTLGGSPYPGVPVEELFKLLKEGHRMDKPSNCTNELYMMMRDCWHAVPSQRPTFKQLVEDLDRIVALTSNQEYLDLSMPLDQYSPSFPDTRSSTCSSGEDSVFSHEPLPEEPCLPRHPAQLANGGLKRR
Fes, sequence (P07332 whole entry, looked up): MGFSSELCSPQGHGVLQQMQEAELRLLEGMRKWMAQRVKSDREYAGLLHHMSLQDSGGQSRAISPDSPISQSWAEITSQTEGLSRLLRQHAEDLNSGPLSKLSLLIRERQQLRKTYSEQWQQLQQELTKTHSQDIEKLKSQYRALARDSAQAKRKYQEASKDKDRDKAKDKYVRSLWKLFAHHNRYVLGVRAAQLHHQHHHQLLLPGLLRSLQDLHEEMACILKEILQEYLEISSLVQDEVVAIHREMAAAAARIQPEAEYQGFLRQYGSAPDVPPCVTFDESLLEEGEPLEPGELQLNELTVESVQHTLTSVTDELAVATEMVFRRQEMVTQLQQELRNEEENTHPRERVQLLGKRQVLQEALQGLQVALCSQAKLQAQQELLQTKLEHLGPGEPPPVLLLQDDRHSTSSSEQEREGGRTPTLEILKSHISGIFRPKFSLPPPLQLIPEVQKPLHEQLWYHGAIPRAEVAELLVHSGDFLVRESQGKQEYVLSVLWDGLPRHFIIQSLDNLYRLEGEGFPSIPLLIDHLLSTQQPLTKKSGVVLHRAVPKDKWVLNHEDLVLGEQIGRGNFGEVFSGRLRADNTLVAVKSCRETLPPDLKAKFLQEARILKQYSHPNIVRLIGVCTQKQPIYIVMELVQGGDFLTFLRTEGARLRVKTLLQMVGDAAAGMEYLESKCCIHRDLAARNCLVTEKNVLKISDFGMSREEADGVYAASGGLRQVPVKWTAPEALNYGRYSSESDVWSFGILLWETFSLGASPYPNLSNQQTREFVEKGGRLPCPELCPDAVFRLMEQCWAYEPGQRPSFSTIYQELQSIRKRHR
EPHB1, sequence (P54762 whole entry, looked up): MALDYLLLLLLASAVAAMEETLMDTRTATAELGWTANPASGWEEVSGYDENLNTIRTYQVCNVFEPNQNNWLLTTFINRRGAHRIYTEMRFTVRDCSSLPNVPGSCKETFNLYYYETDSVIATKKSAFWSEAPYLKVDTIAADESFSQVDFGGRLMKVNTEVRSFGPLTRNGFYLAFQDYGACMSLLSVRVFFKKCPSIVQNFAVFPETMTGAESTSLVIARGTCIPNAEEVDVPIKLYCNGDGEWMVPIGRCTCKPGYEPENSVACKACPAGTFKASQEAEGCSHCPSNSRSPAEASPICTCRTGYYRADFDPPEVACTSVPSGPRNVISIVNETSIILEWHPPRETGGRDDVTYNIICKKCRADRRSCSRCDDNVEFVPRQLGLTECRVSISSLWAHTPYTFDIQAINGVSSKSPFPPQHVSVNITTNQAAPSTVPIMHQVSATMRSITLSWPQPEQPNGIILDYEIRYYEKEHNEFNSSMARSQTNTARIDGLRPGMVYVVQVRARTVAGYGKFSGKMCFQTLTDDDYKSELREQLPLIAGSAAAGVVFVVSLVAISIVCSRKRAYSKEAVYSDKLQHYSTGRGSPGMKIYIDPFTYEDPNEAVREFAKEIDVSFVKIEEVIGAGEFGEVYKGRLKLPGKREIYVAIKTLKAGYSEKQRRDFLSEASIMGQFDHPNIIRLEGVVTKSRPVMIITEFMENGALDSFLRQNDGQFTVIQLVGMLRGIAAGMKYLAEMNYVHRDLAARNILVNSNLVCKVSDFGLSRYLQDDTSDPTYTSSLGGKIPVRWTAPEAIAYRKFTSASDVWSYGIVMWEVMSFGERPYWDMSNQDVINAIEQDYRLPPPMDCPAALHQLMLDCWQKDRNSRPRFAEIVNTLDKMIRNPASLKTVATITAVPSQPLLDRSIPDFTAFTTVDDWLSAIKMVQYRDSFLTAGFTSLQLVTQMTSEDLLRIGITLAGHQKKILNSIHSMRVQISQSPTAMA
EPHB2, sequence (P29323 whole entry, looked up): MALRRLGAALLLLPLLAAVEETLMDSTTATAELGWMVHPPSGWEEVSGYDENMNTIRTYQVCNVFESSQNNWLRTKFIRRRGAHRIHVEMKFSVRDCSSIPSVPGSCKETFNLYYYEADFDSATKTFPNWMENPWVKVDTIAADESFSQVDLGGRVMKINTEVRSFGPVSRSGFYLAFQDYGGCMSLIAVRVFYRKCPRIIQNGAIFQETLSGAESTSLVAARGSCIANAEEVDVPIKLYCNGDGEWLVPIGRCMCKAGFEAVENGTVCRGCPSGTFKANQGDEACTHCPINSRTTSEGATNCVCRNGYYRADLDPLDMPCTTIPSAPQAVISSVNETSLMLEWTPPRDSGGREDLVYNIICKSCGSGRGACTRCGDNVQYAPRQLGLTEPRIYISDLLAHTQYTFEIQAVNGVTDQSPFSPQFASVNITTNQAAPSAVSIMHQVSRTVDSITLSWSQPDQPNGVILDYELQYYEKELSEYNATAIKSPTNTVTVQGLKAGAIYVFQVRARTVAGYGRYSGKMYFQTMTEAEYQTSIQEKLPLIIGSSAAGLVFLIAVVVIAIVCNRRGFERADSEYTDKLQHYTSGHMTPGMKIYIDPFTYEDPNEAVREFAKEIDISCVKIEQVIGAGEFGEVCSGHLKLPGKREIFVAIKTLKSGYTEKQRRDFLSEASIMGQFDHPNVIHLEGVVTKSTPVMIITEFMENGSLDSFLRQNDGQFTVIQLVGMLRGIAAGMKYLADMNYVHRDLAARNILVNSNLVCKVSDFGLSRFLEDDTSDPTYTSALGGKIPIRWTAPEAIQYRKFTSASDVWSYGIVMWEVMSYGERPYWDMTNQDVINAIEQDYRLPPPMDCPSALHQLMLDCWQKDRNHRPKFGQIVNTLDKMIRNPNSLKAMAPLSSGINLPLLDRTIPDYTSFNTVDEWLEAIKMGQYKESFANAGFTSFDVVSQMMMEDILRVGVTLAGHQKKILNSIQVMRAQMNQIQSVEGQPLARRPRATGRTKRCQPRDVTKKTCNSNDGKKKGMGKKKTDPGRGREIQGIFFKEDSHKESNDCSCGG
Hck, sequence (P08631 whole entry, looked up): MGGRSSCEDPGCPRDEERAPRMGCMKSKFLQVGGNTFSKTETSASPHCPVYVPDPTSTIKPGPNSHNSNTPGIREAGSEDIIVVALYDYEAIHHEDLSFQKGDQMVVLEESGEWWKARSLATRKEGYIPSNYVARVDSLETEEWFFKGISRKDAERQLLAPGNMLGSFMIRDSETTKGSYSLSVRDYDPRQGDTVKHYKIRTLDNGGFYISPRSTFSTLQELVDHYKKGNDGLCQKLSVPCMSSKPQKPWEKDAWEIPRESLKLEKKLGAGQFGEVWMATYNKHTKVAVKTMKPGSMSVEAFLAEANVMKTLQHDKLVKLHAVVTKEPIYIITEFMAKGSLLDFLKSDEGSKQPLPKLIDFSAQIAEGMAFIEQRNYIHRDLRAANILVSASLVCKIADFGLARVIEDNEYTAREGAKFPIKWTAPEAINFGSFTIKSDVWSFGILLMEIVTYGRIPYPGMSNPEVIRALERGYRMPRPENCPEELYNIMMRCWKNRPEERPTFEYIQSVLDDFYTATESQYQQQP
Grb2 SH2, sequence (P62993 whole entry, looked up): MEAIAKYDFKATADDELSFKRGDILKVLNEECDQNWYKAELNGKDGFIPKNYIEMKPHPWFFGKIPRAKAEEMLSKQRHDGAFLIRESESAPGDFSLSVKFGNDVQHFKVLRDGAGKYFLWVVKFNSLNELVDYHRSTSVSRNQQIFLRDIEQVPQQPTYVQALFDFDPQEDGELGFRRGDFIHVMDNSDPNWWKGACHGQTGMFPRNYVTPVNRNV
Fyn, sequence (P06241 whole entry, looked up): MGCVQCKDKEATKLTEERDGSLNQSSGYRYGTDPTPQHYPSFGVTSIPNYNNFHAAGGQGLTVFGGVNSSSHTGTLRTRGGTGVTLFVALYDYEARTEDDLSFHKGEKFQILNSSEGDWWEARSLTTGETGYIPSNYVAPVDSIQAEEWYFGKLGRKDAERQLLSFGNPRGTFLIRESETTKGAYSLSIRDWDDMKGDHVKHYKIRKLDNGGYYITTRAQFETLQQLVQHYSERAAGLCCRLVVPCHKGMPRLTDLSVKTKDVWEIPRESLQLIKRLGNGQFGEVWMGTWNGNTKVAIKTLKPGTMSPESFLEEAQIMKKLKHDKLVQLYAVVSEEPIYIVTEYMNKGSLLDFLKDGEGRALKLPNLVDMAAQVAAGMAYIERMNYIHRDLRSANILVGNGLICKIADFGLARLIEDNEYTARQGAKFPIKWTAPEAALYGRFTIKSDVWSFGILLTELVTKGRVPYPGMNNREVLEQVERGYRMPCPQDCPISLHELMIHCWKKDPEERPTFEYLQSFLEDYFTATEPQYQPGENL

Row | Sequence | phosphorylation enrichment [1] | phosphorylation enrichment [2] | phosphorylation enrichment [3] | phosphorylation enrichment [4] | phosphorylation enrichment [5] | phosphorylation enrichment [6] | phosphorylation enrichment [7] | phosphorylation enrichment [8] | phosphorylation enrichment [9] | phosphorylation enrichment [10] | phosphorylation enrichment [11] | phosphorylation enrichment [12] | phosphorylation enrichment [13] | SH2 binding enrichment [14] | SH2 binding enrichment [15] | SH2 binding enrichment [16]
1 | SLALFYRNVFH [RBL1_Y792_K794N_YF] | 0.447 | 0.688 | 1.02 | 0.422 | 1.19 | 0.962 | 1.02 | 0.49 | 0.5 | 0.497 | 0.573 | 0.649 | 0.409 | 0.892 | 0.518 | 0.873
2 | CTTLHYNFMCN [TP53_Y234_I232L_YF] | 0.567 | 0.545 | 0.406 | 0.424 | 0.78 | 0.718 | 0.758 | 0.391 | 0.395 | 0.708 | 0.361 | 0.534 | 0.538 | 1.53 | 2.26 | 1.64
3 | TSFSGYRFHRH [NKAPL_Y94_YF] | 0.44 | 0.601 | 0.471 | 0.452 | 0.788 | 0.558 | 0.546 | 0.472 | 0.515 | 0.384 | 0.429 | 0.677 | 0.579 | 1.28 | 0.942 | 1.01
4 | QPSALYEDRFL [ASS1_Y83_S79P_YF] | 0.816 | 0.881 | 2.01 | 1.11 | 1.4 | 1.4 | 0.968 | 1.77 | 6.97 | 10.6 | 3.04 | 1.12 | 1.41 | 0.783 | 0.633 | 0.684
5 | PSSNLYYRWLT [CNGA3_Y168] | 13.5 | 7.69 | 4.17 | 12.4 | 1.4 | 1.89 | 7.82 | 3.84 | 8.15 | 6.19 | 3.17 | 9.96 | 4.28 | 1.32 | 0.816 | 1.59
6 | NGVSFYINLCQ [IGF2R_Y2025_YF] | 0.568 | 1.16 | 0.699 | 0.478 | 2 | 1.5 | 1.92 | 0.452 | 0.567 | 0.671 | 1.11 | 1.01 | 0.472 | 0.791 | 0.396 | 0.651
7 | MLEAPYVDRNS [F10_Y384_V382A] | 0.455 | 0.689 | 0.451 | 0.343 | 0.954 | 0.747 | 0.739 | 0.465 | 0.497 | 0.391 | 0.452 | 0.557 | 0.435 | 0.827 | 0.439 | 0.743
8 | HCHEGYILHGA [SVEP1_Y2921] | 0.722 | 1.61 | 0.746 | 0.945 | 1.78 | 1.45 | 1.94 | 0.888 | 0.827 | 0.45 | 1.27 | 0.768 | 1.12 | 1.01 | 0.812 | 1.21
9 | EEVKAYLDFRE [CHAC2_Y78] | 0.584 | 0.867 | 0.765 | 0.524 | 1.44 | 1.2 | 1.35 | 0.605 | 0.601 | 0.651 | 0.652 | 0.865 | 0.59 | 0.651 | 0.33 | 0.556
10 | GAAMLYFPSVS [GPR143_Y177_YF] | 0.66 | 0.535 | 0.423 | 0.732 | 0.764 | 0.613 | 1.36 | 0.445 | 0.512 | 0.437 | 0.465 | 0.736 | 0.56 | 0.871 | 0.503 | 0.895
11 | PAQAAYQKVVA [HBB_Y131_V127A] | 0.544 | 0.589 | 0.67 | 0.349 | 0.771 | 0.647 | 0.59 | 0.879 | 0.542 | 0.477 | 0.562 | 0.62 | 0.375 | 0.9 | 0.87 | 0.884
12 | GHPFAYDWISI [BEST1_Y227_L224P_YF] | 2.03 | 0.562 | 0.721 | 6.57 | 1.22 | 1.04 | 0.774 | 0.478 | 0.811 | 14.7 | 0.932 | 1.29 | 0.629 | 1.36 | 1.72 | 0.869
13 | TFSPPYYHRNC [HGD_Y333_R330S] | 0.565 | 0.612 | 0.52 | 0.526 | 0.813 | 0.822 | 0.83 | 0.5 | 0.531 | 0.497 | 0.45 | 0.654 | 0.535 | 1.06 | 0.703 | 0.859
14 | YDGKEYDPVEA [MAPRE2_Y167] | 0.535 | 0.935 | 0.637 | 0.497 | 1.42 | 1.21 | 1.22 | 0.556 | 0.567 | 0.621 | 0.772 | 0.836 | 0.645 | 0.912 | 0.604 | 0.502
15 | YGMQLYQKYMH [GRB14_Y347_N349K] | 0.572 | 0.648 | 2.42 | 1.92 | 0.694 | 0.844 | 0.561 | 1.31 | 2.08 | 2.09 | 1.15 | 0.581 | 2.29 | 0.824 | 0.548 | 0.64
16 | MTFQNYGQALF [FAM20C_Y279] | 0.46 | 0.605 | 1.65 | 0.429 | 0.827 | 0.901 | 0.893 | 0.458 | 0.462 | 0.496 | 0.758 | 0.739 | 0.489 | 0.921 | 0.515 | 0.783
